In publication PMC12510318:

Experiments:
Assay in all cases: EMSA
Conditions in all cases: EMSA: 6 ng 32P-satBaMV riboprobe, 2 U RNasin, 15 ul CAPS buffer (pH and salt not given), 20 min on ice; 4-12% NuPAGE in MES buffer at 4 C
[1] = system: rFIB K134A (Nicotiana benthamiana)
[2] = system: rFIB (NbFIB2) WT (Nicotiana benthamiana)
[3] = system: rFIB K256A (Nicotiana benthamiana)
[4] = system: rFIB triple mutant (Nicotiana benthamiana)
[5] = system: rFIB D227A (Nicotiana benthamiana)
[6] = system: rP20 WT (bamboo mosaic virus satellite RNA (satBaMV))

## satBaMV riboprobe
[1]
  Kd: 140 nM
[2]
  Kd: 50 nM
[3]
  Kd: 350 nM
[4]
  Kd: 1230 nM
[5]
  Kd: 350 nM
[6]
  Kd: 32 nM
